The data set deals with the molecule itself. Nature of the data set: SEC. (In general: SEC sorts molecules by how far they enter the pores of the column.)

B1: soluble, C-terminally His-tagged extracellular domain of WT JAM-A (junctional adhesion molecule-A) (domain or fragment, UniProt Q9Y624 28-238, looked up)
chain: SVTVHSSEPEVRIPENNPVKLSCAYSGFSSPRVEWKFDQGDTTRLVCYNNKITASYEDRVTFLPTGITFKSVTREDTGTYTCMVSEEGGNSYGEVKVKLIVLVPPSKPTVNIPSSATIGNRAVLTCSEQDGSPPSEYTWFKDGIVMPTNPKSTRAFSNSSYVLNPTTGELVFDPLSASDTGEYSCEARNGYGTPMTSNAVRMEAVERNVGV
Consider B1, for which the “stoichiometry N” value was 2.

The term stoichiometry N denotes a count of units in the complex or per binding partner.

The values above are taken from publication PMC4019489 (Molecular Biology of the Cell, 2014).
